Each block holds one molecule with its values, some of them ahead of it.
Legend:
[1] = target: Thy-1 on the surface of primary rat cortical neurons (rat (endogenous in primary cortical neurons)) (UniProt P01830)
[2] = target: Thy-1 on CAD cells (mouse (endogenous in CAD cells)) (UniProt P01831)
[3] = target: Thy-1 on the surface of primary rat cortical neurons (rat (endogenous in primary cortical neurons)) (UniProt P01830); remark: listed apart in the source
[4] = target: Thy-1 on the surface of primary rat cortical neurons (rat (endogenous in primary cortical neurons)) (UniProt P01830); remark: listed apart in the source
[5] = target: αVβ3 integrin on the cell surface of DITNC1 astrocytes (UniProt Q8R2H2)
Chain of UniProt Q8R2H2 (Q8R2H2 whole entry, looked up): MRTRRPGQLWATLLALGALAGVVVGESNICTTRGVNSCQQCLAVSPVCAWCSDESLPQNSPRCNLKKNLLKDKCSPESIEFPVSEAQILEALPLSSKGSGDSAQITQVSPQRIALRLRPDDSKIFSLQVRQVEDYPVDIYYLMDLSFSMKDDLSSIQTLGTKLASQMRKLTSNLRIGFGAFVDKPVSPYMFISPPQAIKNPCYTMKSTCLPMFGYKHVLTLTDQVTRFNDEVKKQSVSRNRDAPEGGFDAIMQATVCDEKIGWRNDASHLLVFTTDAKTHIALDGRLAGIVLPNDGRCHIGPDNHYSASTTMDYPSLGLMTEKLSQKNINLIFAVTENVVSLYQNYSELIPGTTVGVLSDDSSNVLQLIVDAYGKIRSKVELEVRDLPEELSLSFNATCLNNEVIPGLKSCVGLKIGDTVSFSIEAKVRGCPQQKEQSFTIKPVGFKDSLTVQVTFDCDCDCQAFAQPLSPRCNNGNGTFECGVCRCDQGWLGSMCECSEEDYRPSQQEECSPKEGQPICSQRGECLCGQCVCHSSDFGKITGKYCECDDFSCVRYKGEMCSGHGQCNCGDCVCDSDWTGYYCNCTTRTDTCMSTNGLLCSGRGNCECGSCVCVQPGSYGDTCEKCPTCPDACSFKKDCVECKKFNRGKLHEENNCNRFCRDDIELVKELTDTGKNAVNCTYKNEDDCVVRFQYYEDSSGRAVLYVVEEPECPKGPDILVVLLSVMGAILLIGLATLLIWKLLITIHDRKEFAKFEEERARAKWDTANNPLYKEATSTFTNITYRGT

Chain of UniProt P01830 (P01830 20-130): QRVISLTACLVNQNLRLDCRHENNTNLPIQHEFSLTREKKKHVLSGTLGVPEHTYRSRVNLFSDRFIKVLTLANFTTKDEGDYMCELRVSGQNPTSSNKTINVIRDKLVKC

percentage of axonal terminals collapsed in mature cortical neurons treated with αVβ3-Fc cross-linked with Protein A [1]: 80%
length of processes of CAD cells on αVβ3-Fc-coated plates in comparison to controls [2]: 40 % decrease
percentage of Thy-1 positive axonal terminals collapsed in mature cortical neurons (12–15 days in vitro) treated with αVβ3-Fc-containing supernatants [3]: 55%
length of dendrites of cortical neurons (4–5 days in culture) treated with αVβ3-Fc-containing supernatant for 72 hours, compared with non-treated neurons; prevented by PI-PLC pre-treatment [4]: 50 % decrease
Molecule: αVβ3-Fc fusion protein (from UniProt P06756 31-1048; P05106 27-718)

percentage of differentiated CAD cells (processes ≥15 µm) seeded over a monolayer of DITNC1 astrocytes, against ∼80% on plastic [5]: 35%
B1: Thy-1 on CAD cells (natural protein)
chain: QKVTSLTACLVNQNLRLDCRHENNTKDNSIQHEFSLTREKRKHVLSGTLGIPEHTYRSRVTLSNQPYIKVLTLANFTTKDEGDYFCELQVSGANPMSSNKSISVYRDKLVKC
modifications: GPI anchor
